Experiments:
HeLa Kyoto [1] = test: solubility change mitosis vs G1/S (difference of NP-40 vs SDS log2 ratios) (log2 ratio difference); higher = more soluble in mitosis
HeLa Kyoto [2] = test: solubility in G1/S (NP-40 vs SDS abundance) (log2 ratio); higher = more soluble; settings: cell cycle stage: G1/S
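Wherever solubility change mitosis vs G1/S (difference of NP-40 vs SDS log2 ratios) is given: synchronized HeLa Kyoto cells (double thymidine block for G1/S, nocodazole release for mitosis), protein amounts in NP-40 versus SDS lysates quantified by mass spectrometry, three biological replicates.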
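Wherever solubility in G1/S (NP-40 vs SDS abundance) is given: HeLa Kyoto cells arrested at G1/S by double thymidine block, proteins quantified by TMT10plex mass spectrometry in mild NP-40 versus SDS extracts, three biological replicates.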

| Substance | solubility change mitosis (log2) (HeLa Kyoto [1]) | solubility in G1/S (log2) (HeLa Kyoto [2]) |
| --- | --- | --- |
| MARRSQSSSQGDNPLAPGYLPPHYKEYYRLAVDALAEGGSEAYSRFLATEGAPDFLCPEELEHVSRHLRPPQYVTREPPEGSLLDVDMDGSSGTYWPVNSDQAVPELDLGWPLTFGFQGTEVTTLVQPPPPDSPSIKDEARRMIRSAQQVVAVVMDMFTDVDLLSEVLEAAARRVPVYILLDEMNAQHFLDMADKCRVNLQHVDFLRVRTVAGPTYYCRTGKSFKGHVKEKFLLVDCAVVMSGSYSFMWSFEKIHRSLAHVFQGELVSSFDEEFRILFAQSEPLVPSAAALARMDAYALAPYAGAGPLVGVPGVGAPTPFSFPKRAHLLFPPPREEGLGFPSFLDPDRHFLSAFRREEPPRMPGGALEPHAGLRPLSRRLEAEAGPAGELAGARGFFQARHLEMDAFKRHSFATEGAGAVENFAAARQVSRQTFLSHGDDFRFQTSHFHRDQLYQQQYQWDPQLTPARPQGLFEKLRGGRAGFADPDDFTLGAGPRFPELGPDGHQRLDYVPSSASREVRHGSDPAFAPGPRGLEPSGAPRPNLTQRFPCQAAARPGPDPAPEAEPERRGGPEGRAGLRRWRLASYLSGCHGEDGGDDGLPAPMEAEAYEDDVLAPGGRAPAGDLLPSAFRVPAAFPTKVPVPGPGSGGNGPEREGPEEPGLAKQDSFRSRLNPLVQRSSRLRSSLIFSTSQAEGAAGAAAATEKVQLLHKEQTVSETLGPGGEAVRSAASTKVAELLEKYKGPARDPGGGAGAITVASHSKAVVSQAWREEVAAPGAVGGERRSLESCLLDLRDSFAQQLHQEAERQPGAASLTAAQLLDTLGRSGSDRLPSRFLSAQSHSTSPQGLDSPLPLEGSGAHQVLHNESKGSPTSAYPERKGSPTPGFSTRRGSPTTGFIEQKGSPTSAYPERRGSPVPPVPERRSSPVPPVPERRGSLTLTISGESPKAGPAEEGPSGPMEVLRKGSLRLRQLLSPKGERRMEDEGGFPVPQENGQPESPRRLSLGQGDSTEAATEERGPRARLSSATANALYSSNLRDDTKAILEQISAHGQKHRAVPAPSPGPTHNSPELGRPPAAGVLAPDMSDKDKCSAIFRSDSLGTQGRLSRTLPASAEERDRLLRRMESMRKEKRVYSRFEVFCKKEEASSPGAGEGPAEEGTRDSKVGKFVPKILGTFKSKK [FAM83H] | -0.0789 | -0.733 |
| MAVAVGRPSNEELRNLSLSGHVGFDSLPDQLVNKSTSQGFCFNILCVGETGIGKSTLMDTLFNTKFESDPATHNEPGVRLKARSYELQESNVRLKLTIVDTVGFGDQINKDDSYKPIVEYIDAQFEAYLQEELKIKRSLFNYHDTRIHACLYFIAPTGHSLKSLDLVTMKKLDSKVNIIPIIAKADTIAKNELHKFKSKIMSELVSNGVQIYQFPTDEETVAEINATMSVHLPFAVVGSTEEVKIGNKMAKARQYPWGVVQVENENHCDFVKLREMLIRVNMEDLREQTHTRHYELYRRCKLEEMGFKDTDPDSKPFSLQETYEAKRNEFLGELQKKEEEMRQMFVMRVKEKEAELKEAEKELHEKFDLLKRTHQEEKKKVEDKKKELEEEVNNFQKKKAAAQLLQSQAQQSGAQQTKKDKDKKNASFT [SEPT11] | 0.12 | -0.0512 |
| MSRQAKDDFLRHYTVSDPRTHPKGYTEYKVTAQFISKKDPEDVKEVVVWKRYSDFRKLHGDLAYTHRNLFRRLEEFPAFPRAQVFGRFEASVIEERRKGAEDLLRFTVHIPALNNSPQLKEFFRGGEVTRPLEVSRDLHILPPPLIPTPPPDDPRLSQLLPAERRGLEELEVPVDPPPSSPAQEALDLLFNCESTEEASGSPARGPLTEAELALFDPFSKEEGAAPSPTHVAELATMEVESARLDQEPWEPGGQEEEEDGEGGPTPAYLSQATELITQALRDEKAGAYAAALQGYRDGVHVLLQGVPSDPLPARQEGVKKKAAEYLKRAEEILRLHLSQLPP [SNX15] | -0.104 | 0.365 |
| MVMAALSLVAACWGRAAADESVQLPAAPGSSVRARETMVSVTMATSEWIQFFKEAGIPPGPAVNYAVMFVDNRIQKSMLLDLNKEIMNELGVTVVGDIIAILKHAKVVHRQDMCKAATESVPCSPSPLAGEIRRGTSAASRMITNSLNHDSPPSTPPRRPDTSTSKISVTVSNKMAAKSAKATAALARREEESLAVPAKRRRVTAEMEGKYVINMPKGTTPRTRKILEQQQAAKGLHRTSVFDRLGAETKADTTTGSKPTGVFSRLGATPETDEDLAWDSDNDSSSSVLQYAGVLKKLGRGPAKASPQPALTVKAKATSSATTAAAPTLRRLALSSRSGLERKPESLSKVSIIKRLGAAALVPEAQDSQVTSTKSKSSAEVKVTIKRTLVGPRGSSSSEGLGAQMDHAGTVSVFKRLGRRTF [C19ORF47] | 1.04 | -0.824 |
| MDDDKPFQPKNISKMAELFMECEEEELEPWQKKVEETQDEDDDELIFVGEISSSKPAISNILNRGHSSSSSKGIKSEPHSPGIPEIFRTASQRCRDPPSNPVAASPRFHLVSKSSQSSVTVENASKPDFTKNSQVGSDNSSILLFDSTQESLPPSQDIPAIFREGMKNTSYVLKHPSTSKVNSVTPKKPKTSEDVPQINPSTSLPLIGSPPVTSSQVMLSKGTNTSSPYDAGADYLRACPKCNVQFNLLDPLKYHMKHCCPDMITKFLGVIVKSERPCDEDKTDSETGKLIMLVNEFYYGRHEGVTEKEPKTYTTFKCFSCSKVLKNNIRFMNHMKHHLELEKQNNESWENHTTCQHCYRQYPTPFQLQCHIESTHTPHEFSTICKICELSFETEHILLQHMKDTHKPGEMPYVCQVCQFRSSTFSDVEAHFRAAHENTKNLLCPFCLKVSKMATPYMNHYMKHQKKGVHRCPKCRLQFLTSKEKAEHKAQHRTFIKPKELEGLPPGAKVTIRASLGPLQSKLPTAPFGCAPGTSFLQVTPPTSQNTTARNPRKSNASRSKTSKLHATTSTASKVNTSKPRGRIAKSKAKPSYKQKRQRNRKNKMSLALKNIRCRRGIHKCIECHSKIKDFASHFSIYIHCSFCKYNTNCNKAFVNHMMSSHSNHPGKRFCIFKKHSGTLRGITLVCLKCDFLADSSGLDRMAKHLSQRKTHTCQVIIENVSKSTSTSEPTTGCSLK [ZNF280C] | 0.796 | -1.44 |
| MRRSLAPSQLAKRKPEGRSCDDEDWQPGLVTPRKRKSSSETQIQECFLSPFRKPLSQLTNQPPCLDSSQHEAFIRSILSKPFKVPIPNYQGPLGSRALGLKRAGVRRALHDPLEKDALVLYEPPPLSAHDQLKLDKEKLPVHVVVDPILSKVLRPHQREGVKFLWECVTSRRIPGSHGCIMADEMGLGKTLQCITLMWTLLRQSPECKPEIDKAVVVSPSSLVKNWYNEVGKWLGGRIQPLAIDGGSKDEIDQKLEGFMNQRGARVSSPILIISYETFRLHVGVLQKGSVGLVICDEGHRLKNSENQTYQALDSLNTSRRVLISGTPIQNDLLEYFSLVHFVNSGILGTAHEFKKHFELPILKGRDAAASEADRQLGEERLRELTSIVNRCLIRRTSDILSKYLPVKIEQVVCCRLTPLQTELYKRFLRQAKPAEELLEGKMSVSSLSSITSLKKLCNHPALIYDKCVEEEDGFVGALDLFPPGYSSKALEPQLSGKMLVLDYILAVTRSRSSDKVVLVSNYTQTLDLFEKLCRARRYLYVRLDGTMSIKKRAKVVERFNSPSSPDFVFMLSSKAGGCGLNLIGANRLVMFDPDWNPANDEQAMARVWRDGQKKTCYIYRLLSAGTIEEKIFQRQSHKKALSSCVVDEEQDVERHFSLGELKELFILDEASLSDTHDRLHCRRCVNSRQIRPPPDGSDCTSDLAGWNHCTDKWGLRDEVLQAAWDAASTAITFVFHQRSHEEQRGLR [RAD54L] | -0.192 | -0.0919 |
| MTTLTHRARRTEISKNSEKKMESEEDSNWEKSPDNEDSGDSKDIRLTLMEEVLLLGLKDKEGYTSFWNDCISSGLRGGILIELAMRGRIYLEPPTMRKKRLLDRKVLLKSDSPTGDVLLDETLKHIKATEPTETVQTWIELLTGETWNPFKLQYQLRNVRERIAKNLVEKGILTTEKQNFLLFDMTTHPVTNTTEKQRLVKKLQDSVLERWVNDPQRMDKRTLALLVLAHSSDVLENVFSSLTDDKYDVAMNRAKDLVELDPEVEGTKPSATEMIWAVLAAFNKS [GOLPH3L] | 0.0306 | 0.202 |
| MRRDERDAKAMRSLQPPDGAGSPPESLRNGYVKSCVSPLRQDPPRGFFFHLCRFCNVELRPPPASPQQPRRCSPFCRARLSLGALAAFVLALLLGAEPESWAAGAAWLRTLLSVCSHSLSPLFSIACAFFFLTCFLTRTKRGPGPGRSCGSWWLLALPACCYLGDFLVWQWWSWPWGDGDAGSAAPHTPPEAAAGRLLLVLSCVGLLLTLAHPLRLRHCVLVLLLASFVWWVSFTSLGSLPSALRPLLSGLVGGAGCLLALGLDHFFQIREAPLHPRLSSAAEEKVPVIRPRRRSSCVSLGETAASYYGSCKIFRRPSLPCISREQMILWDWDLKQWYKPHYQNSGGGNGVDLSVLNEARNMVSDLLTDPSLPPQVISSLRSISSLMGAFSGSCRPKINPLTPFPGFYPCSEIEDPAEKGDRKLNKGLNRNSLPTPQLRRSSGTSGLLPVEQSSRWDRNNGKRPHQEFGISSQGCYLNGPFNSNLLTIPKQRSSSVSLTHHVGLRRAGVLSSLSPVNSSNHGPVSTGSLTNRSPIEFPDTADFLNKPSVILQRSLGNAPNTPDFYQQLRNSDSNLCNSCGHQMLKYVSTSESDGTDCCSGKSGEEENIFSKESFKLMETQQEEETEKKDSRKLFQEGDKWLTEEAQSEQQTNIEQEVSLDLILVEEYDSLIEKMSNWNFPIFELVEKMGEKSGRILSQVMYTLFQDTGLLEIFKIPTQQFMNYFRALENGYRDIPYHNRIHATDVLHAVWYLTTRPVPGLQQIHNGCGTGNETDSDGRINHGRIAYISSKSCSNPDESYGCLSSNIPALELMALYVAAAMHDYDHPGRTNAFLVATNAPQAVLYNDRSVLENHHAASAWNLYLSRPEYNFLLHLDHVEFKRFRFLVIEAILATDLKKHFDFLAEFNAKANDVNSNGIEWSNENDRLLVCQVCIKLADINGPAKVRDLHLKWTEGIVNEFYEQGDEEANLGLPISPFMDRSSPQLAKLQESFITHIVGPLCNSYDAAGLLPGQWLEAEEDNDTESGDDEDGEELDTEDEEMENNLNPKPPRRKSRRRIFCQLMHHLTENHKIWKEIVEEEEKCKADGNKLQVENSSLPQADEIQVIEEADEEE [PDE3B] | -0.0328 | -0.122 |
| MDRGQPSLEPAAAAPRASGRCVIAPVRAVLRLRRRVCVLRKRRLLQPGGGPDVGTGAPRPGCSPRAPRADLDQPKFFTFDSPAELPSRTPRKKRRRSRLVLYPETSRKYRPRVEHRSRAQRCLLLLVAIVGFQVLNAIENLDDNAQRYDLDGLEKALQRAVFGQPAAVSRIVALMRDYLATHVHSRPLLLALHGPSGVGKSHVGRLLARHFRSVLEDSALVLQYHARHHCPEARAAQDCREELARRVADVVARAEAEEKTPLLVLDDVELMPRPLLDELHGFLQPQRSHHFHNAIYVLLSGAGGAEVTRFVLQNASRALPLRPDGFRSAEAAAAQAEEDLRASLLAVLSREHPLWQAAAIVPFLLLDKRDVVSCFRDEMAGEGFFPDQARAENLAAQLSFYRVAGREFAVTGCKQVVATVNLL [TOR4A] | 0.0625 | 0.137 |
| MLPPMALPSVSWMLLSCLMLLSQVQGEEPQRELPSARIRCPKGSKAYGSHCYALFLSPKSWTDADLACQKRPSGNLVSVLSGAEGSFVSSLVKSIGNSYSYVWIGLHDPTQGTEPNGEGWEWSSSDVMNYFAWERNPSTISSPGHCASLSRSTAFLRWKDYNCNVRLPYVCKFTD [PAP1] | -0.21 | 0.102 |
| WDR81 | -0.333 | -0.0834 |
